Measured values taken from patent publication US20210024625A1 (published 2021).

T1: PfRH5 from Plasmodium falciparum strain 3D7 (Plasmodium falciparum, UniProt Q8IFM5 25-526)
T1 sequence: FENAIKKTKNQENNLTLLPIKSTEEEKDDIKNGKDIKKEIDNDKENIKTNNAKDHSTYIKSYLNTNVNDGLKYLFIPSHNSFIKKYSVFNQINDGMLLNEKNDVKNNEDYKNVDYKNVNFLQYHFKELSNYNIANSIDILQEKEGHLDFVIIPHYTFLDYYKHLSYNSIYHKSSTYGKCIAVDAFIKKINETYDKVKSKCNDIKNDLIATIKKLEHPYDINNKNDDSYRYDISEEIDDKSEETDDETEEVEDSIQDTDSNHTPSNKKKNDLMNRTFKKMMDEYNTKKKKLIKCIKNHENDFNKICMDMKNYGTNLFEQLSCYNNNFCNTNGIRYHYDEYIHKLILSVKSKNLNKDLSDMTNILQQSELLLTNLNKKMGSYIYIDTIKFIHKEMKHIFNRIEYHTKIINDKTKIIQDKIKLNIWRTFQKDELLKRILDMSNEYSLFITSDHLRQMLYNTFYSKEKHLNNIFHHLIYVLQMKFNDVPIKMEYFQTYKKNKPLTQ


Experiments:
Experiment in all cases: cell-based or functional assay
[1] = target: PfRH5 from Plasmodium falciparum strain HB3 (Plasmodium falciparum)
[2] = target: PfRH5 from Plasmodium falciparum strain W2-mef (Plasmodium falciparum)
[3] = target: T2, PfRH5 from Plasmodium falciparum strain Dd2 (Plasmodium falciparum)
[4] = target: PfRH5 from Plasmodium falciparum strain Cam3.II (Plasmodium falciparum)
[5] = target: PfRH5 from Plasmodium falciparum strain FCR-1/FVO (Plasmodium falciparum)
[6] = target: PfRH5 from Plasmodium falciparum strain 7G8 (Plasmodium falciparum)
[7] = target: PfRH5 from Plasmodium falciparum strain RF7 (Plasmodium falciparum)
[8] = target: T1, PfRH5 from Plasmodium falciparum strain …
[9] = target: PfRH5 from Plasmodium falciparum strain D10 (Plasmodium falciparum)
[10] = target: T2, PfRH5 from Plasmodium falciparum strain …; remark: listed apart in the source

Binder	Max growth inhibition (%) [1] [%]	Max growth inhibition (%) [2] [%]	Max growth inhibition (%) [3] [%]	Max growth inhibition (%) [4] [%]	Max growth inhibition (%) [5] [%]	Max growth inhibition (%) [6] [%]	Max growth inhibition (%) [7] [%]	Max growth inhibition (%) [8] [%]	Max growth inhibition (%) [9] [%]	Maximum growth inhibition (%) [10] [%]
H1H29183P2 (antibody, V domains shown) VH: QVQLVQSGPEVKKPGASVKVSCKASGYTFTSYGISWVRQAPGQGLEWLGWISGFNGRTDYTEKLQDRITMTTDRSSSTAYMELRSLRYDDTAVYYCARDGLEKLGDYWGQGTLVTVSS VL: not shown	4.92	-0.55	0.68	8.66	16.1	17.8	-6.27	5.68	6.79	
H1H29143P (antibody, V domains shown) VH: EVQLVESGGGLVQPGGSLRLSCAASGFTFNNYAMSWVRQAPGRGLEWVSAISGSGDSTYYSDSVKGRFTISRDNSKNTLYLQMNSLRAEDTAVYYCAKDQGLYYYGSGSFDYWGQGTLVTVSS VL: not shown	60.9	58.3	62.7	53.2	67.2	61.9		60.3	79.4	56
H1H29106P (antibody, V domains shown) VH: QVQLVESGGGVVQSGRSLRLSCAASSFTFSSYGMHWVRQSPGKGLEWVAVISYDGSNKYYGDFVRGRFTISRDNSKNTLYLQMNSLRAEDTAMYYCAREVRRYYYYGMDVWGQGTTVTVSS VL: not shown	48.4	48.9	54	51.7	54.3	55.5	27.4	58	74.9	
H1H29104P (antibody, V domains shown) VH: EVQLVESGGGLVQPGRSLRLSCAASGFRFDDYAMHWVRQAPGKGLEWVSGINWNSGGKGYADSVQGRFTISRDNAKNSLYLQMNSLRTEDTALYYCAKDRGIAARLLSRDAFDMWGQGTMVTVSS VL: DIQLTQSPSFLSASVGDRVTITCWASQDVSSYLAWYQQKPGKSPKLLIFAASTLQGGIPSRFSGSGSGTEFTLTISSLRPEDFATYYCQHLNTYPYTFGQGTKLEIKR	39.8	47.4	61.3	50	67.4	35.2	23.6	34.4	55.7	54.1
H1H29179P2 (antibody, V domains shown) VH: QVQLQESGPGLVKPSQTLSLTCTVSGGSISSSGYYWSWIRQHPGRGLEWIGYIYYSGSTYYNPSLKSRVTISVDTSKNQFSLKLNSVTAADTAVYYCARVDYGSGSSFDYWGQGTLVTVSS VL: not shown	40.9	22.9	13.5	33.4	49	34.1	-2.99	24.2	62.5	
H1H29109P (antibody, V domains shown) VH: EVQLVESGGGLVQPGRSLRLSCAVSGFTFDDYAMHWVRQAPGKGLEWVSGISWNSGDIDYADSVKGRFTISRDNAKNSLYLQMNSLRAEDTALYYCAKDTLSGTGTTWYYFDYWGQGTLVTVSS VL: DIQLTQSPSFLSASVGDRVTITCWASQGISSYLIWYQQKPGKAPKLLIYAASTLQSGVPSRFSGSGSGTEFTLTISSLQPEDFATYYCQQVNSYPLTFGGGTKVEIKR	32.2	37.9	42	35.9	56.7	39	8.24	32.2	44.8	
H1H29171P2 (antibody, V domains shown) VH: QVQLVESGGGVVQPGRSLRLSCAASGFTFSSYGMHWVRQAPGKGLEWVAVISYDGSNKYYADSVKGRFTISRDNSKNTLYLQMNSLRAEDTAVYYCAKDDWNYDAFDIWGQGTMVTVSS VL: not shown	0.52	0.74	7.71	5.45	11.7	17	-12.5	4.04	10.6	
H1H29151P2 (antibody, V domains shown) VH: QVQLVESGGGLVKPGGSLRLSCAASGFTFSDYYMNWVRQAPGKGLEWVSYISNSGNTQYYADSVKGRFTISRDNAKNSLFLQMNSLRAEDTAVYYCTREGLEYSSSEPFDYWGQGTLVTVSS VL: not shown	31.7	53.9	58	26.3	53.7	47.5	18.3	35.5	38.7	
H1H29094P (antibody, V domains shown) VH: not shown VL: DIQMTQSPSSLSASVGDRVTITCQASQDINRDLNWYQQKSGKGPKLLIYDASNLETGVPSRFSGNRFGTDFTFTISRLQPEDIATYFCQQYKNLPYTFGQGTKLEIKR	45.4	34.9	41.6	26.2	51.2	29.9	15.2	14.4	35.9	
H1H29166P2 (antibody, V domains shown) VH: EVQLVESGGGLLQPGRSLRLSCVASGFTFDDYAMHWVRQAPGKGLEWVSGISWNSESIGYADSVRGRFTISRDNAKNSLYLQMNSLRAEDTALYYCAKAPYSGTYFEYFRHWGQGTLVTVSS VL: not shown	54.9	61.9	60	55.9	69.7	54.6	19.4	53.1	70.9	
